The numbers were not newly measured in publication PMC3238542, which cites them from elsewhere.

Series [1] concerns the target pyruvate carboxylase (UniProt P11498). Briefly: enzyme inhibition.
The target is the same in series [2].

Read-outs that look alike come from different tables or passages of the source.

UniProt P11498, sequence (P11498 21-1178): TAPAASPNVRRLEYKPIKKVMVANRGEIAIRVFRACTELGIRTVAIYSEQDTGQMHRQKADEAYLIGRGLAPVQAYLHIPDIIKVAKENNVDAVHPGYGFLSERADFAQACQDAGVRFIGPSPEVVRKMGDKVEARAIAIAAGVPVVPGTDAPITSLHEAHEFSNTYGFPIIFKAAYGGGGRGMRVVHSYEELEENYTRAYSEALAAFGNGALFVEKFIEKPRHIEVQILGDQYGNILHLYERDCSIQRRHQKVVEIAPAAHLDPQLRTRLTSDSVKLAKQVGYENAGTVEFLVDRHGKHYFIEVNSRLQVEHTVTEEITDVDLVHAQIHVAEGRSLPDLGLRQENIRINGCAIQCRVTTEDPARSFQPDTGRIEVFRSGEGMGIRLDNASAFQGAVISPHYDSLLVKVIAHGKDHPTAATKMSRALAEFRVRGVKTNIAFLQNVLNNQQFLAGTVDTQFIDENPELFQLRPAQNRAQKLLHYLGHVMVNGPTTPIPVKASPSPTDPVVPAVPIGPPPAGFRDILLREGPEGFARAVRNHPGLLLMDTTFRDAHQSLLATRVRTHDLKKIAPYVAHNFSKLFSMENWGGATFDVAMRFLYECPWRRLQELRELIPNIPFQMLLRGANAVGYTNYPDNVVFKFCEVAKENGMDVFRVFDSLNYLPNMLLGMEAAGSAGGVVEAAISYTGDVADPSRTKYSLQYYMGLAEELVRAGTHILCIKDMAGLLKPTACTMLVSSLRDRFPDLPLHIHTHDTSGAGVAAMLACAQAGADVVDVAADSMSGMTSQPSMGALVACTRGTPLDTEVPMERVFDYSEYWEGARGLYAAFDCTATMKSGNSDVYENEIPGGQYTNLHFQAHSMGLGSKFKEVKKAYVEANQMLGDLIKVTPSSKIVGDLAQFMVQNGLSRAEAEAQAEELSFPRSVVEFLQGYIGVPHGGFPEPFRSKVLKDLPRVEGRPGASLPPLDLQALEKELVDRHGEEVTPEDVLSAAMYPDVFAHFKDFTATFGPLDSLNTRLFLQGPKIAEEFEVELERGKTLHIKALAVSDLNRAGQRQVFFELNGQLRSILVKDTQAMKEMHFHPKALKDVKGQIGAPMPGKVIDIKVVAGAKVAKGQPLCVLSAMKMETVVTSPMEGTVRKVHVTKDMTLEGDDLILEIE

By Ki is commonly meant a dissociation constant, usually derived from enzyme kinetics or from competition with a known ligand. With prohibitin (Phb1) (from UniProt P35232), the inhibition constant Ki in series [1] is 5 nM; in series [2], 4 nM.
